Data as given in publication PMC8967028.

Target: SARS-CoV-2 Wuhan spike (S) receptor binding domain (SARS-CoV-2)
Assay: SPR; Biacore T200; […], single cycle kinetics, […]; 25°C; PBS, 0.05% Tween 20, 3.4 mM EDTA; 1:1 binding model; triplicate; […]

Going from VHH-72-Fc L97W (Fc fusion) to VHH-72-Fc L97W,T99V (Fc fusion), the koff falls from 0.0018 s⁻¹ to 0.00035 s⁻¹ (5.1-fold).

Compared with VHH-72-Fc S56M (Fc fusion), VHH-72-Fc S56M,L97W (Fc fusion) is 7-fold lower in koff: 0.0031 s⁻¹ for the first, 0.00044 s⁻¹ for the second.

VHH-72-Fc S56M,L97W,T99V (Fc fusion) and VHH-72-Fc S56M,T99V (Fc fusion) are within 1.5-fold of each other in koff: 0.00028 s⁻¹ for the first, 0.00041 s⁻¹ for the second.

First: VHH-72-Fc T99V (Fc fusion)
Second: parental VHH-72-Fc (Fc fusion)
The koff of the first is 13-fold lower: 0.00072 s⁻¹ for the first, 0.0091 s⁻¹ for the second.
